Results: patent US20140080757A1 (ZEALAND PHARMA A S, published 2014)
Numbered stars: 1 amine (or outer) side, 2 acyl side, 3 side chain; on linkers, the order of the positions; unused ones are H or OH. Square brackets hold non-standard residues; d marks the D form. Side chains are listed from the residue outwards. * marks the point of attachment. γGlu = O=C(O)[C@H](CCC(=O)[*:2])N[*:1]; Palmitoyl = CCCCCCCCCCCCCCCC(=O)*; Aib = CC(C)(N)C(=O)O

T1: endogenous GLP-1 receptor of a murine insulinoma cell line (murine, UniProt O35659 22-463)
T1 sequence (looked up): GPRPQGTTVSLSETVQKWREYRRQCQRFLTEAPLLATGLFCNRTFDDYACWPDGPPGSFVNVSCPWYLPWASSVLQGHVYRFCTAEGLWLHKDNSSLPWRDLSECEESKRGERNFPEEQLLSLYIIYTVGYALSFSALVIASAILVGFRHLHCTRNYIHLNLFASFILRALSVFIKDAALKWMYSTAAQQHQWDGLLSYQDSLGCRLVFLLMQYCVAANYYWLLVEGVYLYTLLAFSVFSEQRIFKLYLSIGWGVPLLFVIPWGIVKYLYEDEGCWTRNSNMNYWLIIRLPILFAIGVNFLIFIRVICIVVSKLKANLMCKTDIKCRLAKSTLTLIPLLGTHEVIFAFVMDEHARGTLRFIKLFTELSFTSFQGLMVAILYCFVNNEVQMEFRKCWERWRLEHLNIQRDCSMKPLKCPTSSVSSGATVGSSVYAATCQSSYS

B1: Compound 23 (peptide)
peptide: H-H[Aib]QGTFTSDYSKYLESK([γGlu-Palmitoyl])AAHDFVEWLESA-NH2
SMILES: CCCCCCCCCCCCCCCC(=O)N[C@@H](CCC(=O)NCCCC[C@H](NC(=O)[C@H](CO)NC(=O)[C@H](CCC(=O)O)NC(=O)[C@H](CC(C)C)NC(=O)[C@H](Cc1ccc(O)cc1)NC(=O)[C@H](CCCCN)NC(=O)[C@H](CO)NC(=O)[C@H](Cc1ccc(O)cc1)NC(=O)[C@H](CC(=O)O)NC(=O)[C@H](CO)NC(=O)[C@@H](NC(=O)[C@H](Cc1ccccc1)NC(=O)[C@@H](NC(=O)CNC(=O)[C@H](CCC(N)=O)NC(=O)C(C)(C)NC(=O)[C@@H](N)Cc1c[nH]cn1)[C@@H](C)O)[C@@H](C)O)C(=O)N[C@@H](C)C(=O)N[C@@H](C)C(=O)N[C@@H](Cc1c[nH]cn1)C(=O)N[C@@H](CC(=O)O)C(=O)N[C@@H](Cc1ccccc1)C(=O)N[C@H](C(=O)N[C@@H](CCC(=O)O)C(=O)N[C@@H](Cc1c[nH]c2ccccc12)C(=O)N[C@@H](CC(C)C)C(=O)N[C@@H](CCC(=O)O)C(=O)N[C@@H](CO)C(=O)N[C@@H](C)C(N)=O)C(C)C)C(=O)O
B2: Compound 24 (peptide)
peptide: H-H[Aib]QGTFTSDYSKYLESK([γGlu-Palmitoyl])AAEDFVEWLESA-NH2
SMILES: CCCCCCCCCCCCCCCC(=O)N[C@@H](CCC(=O)NCCCC[C@H](NC(=O)[C@H](CO)NC(=O)[C@H](CCC(=O)O)NC(=O)[C@H](CC(C)C)NC(=O)[C@H](Cc1ccc(O)cc1)NC(=O)[C@H](CCCCN)NC(=O)[C@H](CO)NC(=O)[C@H](Cc1ccc(O)cc1)NC(=O)[C@H](CC(=O)O)NC(=O)[C@H](CO)NC(=O)[C@@H](NC(=O)[C@H](Cc1ccccc1)NC(=O)[C@@H](NC(=O)CNC(=O)[C@H](CCC(N)=O)NC(=O)C(C)(C)NC(=O)[C@@H](N)Cc1c[nH]cn1)[C@@H](C)O)[C@@H](C)O)C(=O)N[C@@H](C)C(=O)N[C@@H](C)C(=O)N[C@@H](CCC(=O)O)C(=O)N[C@@H](CC(=O)O)C(=O)N[C@@H](Cc1ccccc1)C(=O)N[C@H](C(=O)N[C@@H](CCC(=O)O)C(=O)N[C@@H](Cc1c[nH]c2ccccc12)C(=O)N[C@@H](CC(C)C)C(=O)N[C@@H](CCC(=O)O)C(=O)N[C@@H](CO)C(=O)N[C@@H](C)C(N)=O)C(C)C)C(=O)O

What was measured:
Test in all cases: cell-based or functional assay
[1] = target: human glucagon receptor (Glucagon-R) (human, UniProt P47871 26-477)
human glucagon receptor (Glucagon-R), sequence (P47871 26-477): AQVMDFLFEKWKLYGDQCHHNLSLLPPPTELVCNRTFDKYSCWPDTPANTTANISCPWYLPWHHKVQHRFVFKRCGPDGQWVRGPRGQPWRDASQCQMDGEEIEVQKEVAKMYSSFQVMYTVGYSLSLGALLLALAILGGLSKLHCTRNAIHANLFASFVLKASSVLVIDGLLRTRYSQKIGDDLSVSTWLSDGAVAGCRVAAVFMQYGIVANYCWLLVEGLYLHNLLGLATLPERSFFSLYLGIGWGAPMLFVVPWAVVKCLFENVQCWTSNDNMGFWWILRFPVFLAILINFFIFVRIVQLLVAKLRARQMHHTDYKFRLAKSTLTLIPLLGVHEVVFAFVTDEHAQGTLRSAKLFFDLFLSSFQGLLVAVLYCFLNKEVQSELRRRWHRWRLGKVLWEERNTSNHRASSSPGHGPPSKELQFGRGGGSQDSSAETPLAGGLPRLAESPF

[2] = target: human glucagon-like peptide 1 receptor (GLP-1R) (human, UniProt P43220 24-463)
[3] = target: T1, endogenous GLP-1 receptor of a murine …
[4] = target: endogenous glucagon receptor of primary rat hepatocytes (rat, UniProt P30082 27-485)
endogenous glucagon receptor of primary rat hepatocytes, sequence (P30082 27-485): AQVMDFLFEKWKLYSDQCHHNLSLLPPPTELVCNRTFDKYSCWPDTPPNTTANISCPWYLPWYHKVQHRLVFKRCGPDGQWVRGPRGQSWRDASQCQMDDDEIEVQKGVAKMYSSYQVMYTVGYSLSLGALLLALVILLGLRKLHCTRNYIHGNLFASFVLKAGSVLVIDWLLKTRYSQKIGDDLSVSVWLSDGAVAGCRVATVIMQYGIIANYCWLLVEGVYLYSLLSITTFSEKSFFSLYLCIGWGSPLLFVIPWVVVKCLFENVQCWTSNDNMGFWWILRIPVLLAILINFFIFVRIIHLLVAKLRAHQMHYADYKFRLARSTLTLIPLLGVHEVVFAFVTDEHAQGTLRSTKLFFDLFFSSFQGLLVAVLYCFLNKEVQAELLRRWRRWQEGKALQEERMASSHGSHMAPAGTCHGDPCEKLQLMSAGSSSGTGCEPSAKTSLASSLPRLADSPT

| Binder | EC50 hGCGR CHO-K1 [nM] (cAMP) [1] | EC50 hGLP-1R CHO-K1 [nM] (cAMP) [2] | Ratio GLP-1/Glucagon (EC50 hGLP-1R / EC50 hGCGR) [2] [ratio] | EC50 GLP-1R (murine insulinoma cells) [nM] (cAMP) [3] | EC50 GLP-1R Rat hepat. [nM] (inhibition of glycogen synthesis) [4] |
| --- | --- | --- | --- | --- | --- |
| B1 | 0.25 | 0.13 | 0.52 | 0.31 | 1.32 |
| B2 | 0.92 | 0.11 | 0.12 | 0.33 | 6.15 |
